Reference: the Immune Epitope Database (IEDB)
Values belong to the sequence of their own block, whether it stands above or below them.

Experiments:
HLA-B*18:01 [1] = assay: IEDB peptide-MHC binding, purified MHC/competitive/fluorescence; filed as Kd, often an IC50 or EC50 that approximates it; ≥ and ≤ were set here for values at or beyond the usual limits of such assays
HLA-B*46:01 [2] = assay: as above
HLA-B*58:01 [3] = assay: as above
HLA-B*27:03 [4] = assay: as above
HLA-B*39:01 [5] = assay: as above
HLA-A*02:01 [6] = assay: as above
HLA-A*26:01 [7] = assay: as above
HLA-A*69:01 [8] = assay: as above
HLA-A*02:12 = assay: IEDB peptide-MHC binding, purified MHC/direct/fluorescence; filed as Kd, often an IC50 or EC50 that approximates it; ≥ and ≤ were set here for values at or beyond the usual limits of such assays
HLA-B*15:01 [9] = assay: as above
HLA-A*02:16 = assay: as above
HLA-A*02:11 = assay: as above
HLA-A*03:01 [10] = assay: as above
HLA-A*29:02 = assay: as above; settings: source organism: Ebola virus Yambio0403
HLA-A*02:03 = assay: as above
HLA-A*02:19 = assay: as above
HLA-A*24:03 = assay: as above
HLA-A*68:02 = assay: as above
HLA-A*31:01 = assay: as above; settings: source organism: Escherichia coli O157:H7
HLA-B*44:02 = assay: as above; settings: source organism: Escherichia coli O157:H7
HLA-B*58:01 [11] = assay: as above; settings: source organism: Escherichia coli O157:H7
HLA-A*01:01 = assay: as above; settings: source organism: Escherichia coli O157:H7
HLA-A*11:01 = assay: as above; settings: source organism: Escherichia coli O157:H7
HLA-B*35:01 = assay: as above
HLA-B*27:05 = assay: as above; settings: source organism: Escherichia coli O157:H7
HLA-B*08:01 = assay: as above; settings: source organism: Escherichia coli O157:H7
HLA-B*07:02 = assay: as above
HLA-A*02:01 [12] = assay: as above
HLA-B*40:01 = assay: as above; settings: source organism: Escherichia coli O157:H7
HLA-A*26:01 [13] = assay: as above
HLA-A*69:01 [14] = assay: as above; settings: source organism: Escherichia coli O157:H7
HLA-A*03:01 [15] = assay: IEDB peptide-MHC binding, purified MHC/competitive/fluorescence; filed as Kd, often an IC50 or EC50 that approximates it; ≥ and ≤ were set here for values at or beyond the usual limits of such assays; settings: source organism: Yersinia pestis Nepal516
HLA-B*15:01 [16] = assay: as above; settings: source organism: Orthohantavirus andesense
HLA-B*51:01 [17] = assay: as above; settings: source organism: Orthohantavirus andesense
HLA-B*58:01 [18] = assay: IEDB peptide-MHC binding, purified MHC/competitive/fluorescence; ≥ and ≤ were set here for values at or beyond the usual limits of such assays; settings: source organism: Homo sapiens
HLA-B*18:01 [19] = assay: IEDB peptide-MHC binding, purified MHC/direct/fluorescence; filed as Kd, often an IC50 or EC50 that approximates it; ≥ and ≤ were set here for values at or beyond the usual limits of such assays; settings: source organism: Encephalitozoon cuniculi GB-M1
HLA-B*46:01 [20] = assay: as above; settings: source organism: Encephalitozoon cuniculi GB-M1
HLA-B*27:03 [21] = assay: as above; settings: source organism: Encephalitozoon cuniculi GB-M1
HLA-B*39:01 [22] = assay: as above; settings: source organism: Encephalitozoon cuniculi GB-M1
HLA-B*51:01 [23] = assay: as above; settings: source organism: Encephalitozoon cuniculi GB-M1
HLA-B*57:01 = assay: as above; settings: source organism: Encephalitozoon cuniculi GB-M1
HLA-B*51:01 [24] = assay: IEDB peptide-MHC binding, purified MHC/competitive/fluorescence; ≥ and ≤ were set here for values at or beyond the usual limits of such assays; settings: source organism: Mus musculus
HLA-C*03:03 = assay: IEDB peptide-MHC binding, purified MHC/direct/fluorescence; filed as Kd, often an IC50 or EC50 that approximates it; ≥ and ≤ were set here for values at or beyond the usual limits of such assays; settings: source organism: Mus musculus
[25] = source organism: Zaire ebolavirus
[26] = source organism: Ebola virus Yambio0403
[27] = source organism: Escherichia coli O157:H7
[28] = source organism: Orthohantavirus andesense
[29] = source organism: Orthohantavirus puumalaense
[30] = source organism: Encephalitozoon cuniculi GB-M1

Sequence: ESLLHQASW
Kd (HLA-B*18:01 [1]; [25]): ≥ 20 µM
Kd (HLA-B*46:01 [2]; [25]): ≥ 20 µM
Kd (HLA-B*58:01 [3]; [25]): 0.0021 µM
Kd (HLA-B*27:03 [4]; [25]): ≥ 20 µM
Kd (HLA-B*39:01 [5]; [25]): ≥ 20 µM
Kd (HLA-A*02:01 [6]; [25]): ≥ 20 µM
Kd (HLA-A*26:01 [7]; [25]): ≥ 20 µM
Kd (HLA-A*69:01 [8]; [25]): ≥ 20 µM
Kd (HLA-A*02:12; [26]): ≥ 20 µM
Kd (HLA-B*15:01 [9]; [25]): ≥ 20 µM
Kd (HLA-A*02:16; [26]): ≥ 20 µM
Kd (HLA-A*02:11; [26]): ≥ 20 µM
Kd (HLA-A*03:01 [10]; [26]): ≥ 20 µM
Kd (HLA-A*29:02): ≥ 20 µM
Kd (HLA-A*02:03; [26]): ≥ 20 µM
Kd (HLA-A*02:19; [26]): ≥ 20 µM
Kd (HLA-A*24:03; [26]): ≥ 20 µM
Kd (HLA-A*68:02; [26]): ≥ 20 µM

Sequence: MTTSMTMSY
Kd (HLA-B*58:01 [3]; source organism: Yersinia pestis Nepal516): 0.0475 µM
Kd (HLA-A*03:01 [15]): 0.302 µM

Sequence: QIQAGNFHW
Kd (HLA-B*18:01 [1]; [28]): ≥ 20 µM
Kd (HLA-B*46:01 [2]; [28]): ≥ 20 µM
Kd (HLA-B*15:01 [16]): ≥ 20 µM
Kd (HLA-B*58:01 [3]; [28]): 0.0022 µM
Kd (HLA-B*27:03 [4]; [28]): ≥ 20 µM
Kd (HLA-B*39:01 [5]; [28]): ≥ 20 µM
Kd (HLA-B*51:01 [17]): ≥ 20 µM
Kd (HLA-A*02:01 [6]; [28]): ≥ 20 µM
Kd (HLA-A*26:01 [7]; [28]): ≥ 20 µM
Kd (HLA-A*69:01 [8]; [28]): ≥ 20 µM
Kd (HLA-A*02:12; [29]): ≥ 20 µM
Kd (HLA-A*02:16; [29]): ≥ 20 µM
Kd (HLA-A*02:11; [29]): ≥ 20 µM
Kd (HLA-A*03:01 [10]; [29]): ≥ 20 µM
Kd (HLA-A*02:03; [29]): ≥ 20 µM
Kd (HLA-A*02:19; [29]): ≥ 20 µM
Kd (HLA-A*68:02; [29]): ≥ 20 µM

Sequence: QSSGSSSSGF
IC50 (HLA-B*58:01 [18]): ≥ 20 µM

Continued, values first:

Kd (HLA-B*15:01 [9]; [27]): ≥ 20 µM
Kd (HLA-A*31:01): ≥ 20 µM
Kd (HLA-B*44:02): ≥ 20 µM
Kd (HLA-B*58:01 [11]): ≥ 20 µM
Kd (HLA-A*01:01): ≥ 20 µM
Kd (HLA-A*03:01 [10]; [27]): ≥ 20 µM
Kd (HLA-A*11:01): ≥ 20 µM
Kd (HLA-B*35:01; [27]): 0.0163 µM
Kd (HLA-B*27:05): ≥ 20 µM
Kd (HLA-A*24:03; [27]): ≥ 20 µM
Kd (HLA-B*08:01): 4.22 µM
Kd (HLA-B*07:02; [27]): 0.0371 µM
Kd (HLA-A*02:01 [12]; [27]): ≥ 20 µM
Kd (HLA-B*40:01): ≥ 20 µM
Kd (HLA-A*26:01 [13]; [27]): ≥ 20 µM
Kd (HLA-A*69:01 [14]): ≥ 20 µM
Sequence: LPEFERRTL

Kd (HLA-B*18:01 [19]): ≥ 20 µM
Kd (HLA-A*02:12; [30]): ≥ 20 µM
Kd (HLA-B*46:01 [20]): ≥ 20 µM
Kd (HLA-B*15:01 [9]; [30]): ≥ 20 µM
Kd (HLA-A*02:16; [30]): ≥ 20 µM
Kd (HLA-A*02:11; [30]): ≥ 20 µM
Kd (HLA-A*03:01 [10]; [30]): ≥ 20 µM
Kd (HLA-B*27:03 [21]): ≥ 20 µM
Kd (HLA-B*39:01 [22]): ≥ 20 µM
Kd (HLA-A*02:03; [30]): ≥ 20 µM
Kd (HLA-A*02:19; [30]): ≥ 20 µM
Kd (HLA-B*51:01 [23]): ≥ 20 µM
Kd (HLA-B*35:01; [30]): 0.002 µM
Kd (HLA-B*07:02; [30]): 4.5 µM
Kd (HLA-B*57:01): ≥ 20 µM
Kd (HLA-A*02:01 [12]; [30]): ≥ 20 µM
Kd (HLA-A*68:02; [30]): ≥ 20 µM
Kd (HLA-A*26:01 [13]; [30]): ≥ 20 µM
Sequence: SPLPITLKY

IC50 (HLA-B*51:01 [24]): 1.85 µM
Kd (HLA-C*03:03): 0.002 µM
Sequence: VALFSSCPV
